In patent US20240317859A1 (published 2024):

T1: FcγRIIB/C (CD32b/c) (FcγRIIB) (R&D Systems) (UniProt P31994 46-217)
T1 chain: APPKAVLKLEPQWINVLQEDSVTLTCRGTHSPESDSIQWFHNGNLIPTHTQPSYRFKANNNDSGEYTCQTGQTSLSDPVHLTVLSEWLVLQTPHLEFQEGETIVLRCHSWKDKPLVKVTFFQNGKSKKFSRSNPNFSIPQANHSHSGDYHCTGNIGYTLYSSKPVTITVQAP


How the values were obtained:
[1] = molecular target: T1, FcγRIIB/C (CD32b/c) (FcγRIIB) (R&D …); assay: SPR
[2] = molecular target: Fc gamma RIIIA/CD16a, CF (FcγRIIIA(V158)) (R&D Systems); assay: SPR
Fc gamma RIIIA/CD16a, CF (FcγRIIIA(V158)) (R&D Systems), sequence (chain, as listed by the source): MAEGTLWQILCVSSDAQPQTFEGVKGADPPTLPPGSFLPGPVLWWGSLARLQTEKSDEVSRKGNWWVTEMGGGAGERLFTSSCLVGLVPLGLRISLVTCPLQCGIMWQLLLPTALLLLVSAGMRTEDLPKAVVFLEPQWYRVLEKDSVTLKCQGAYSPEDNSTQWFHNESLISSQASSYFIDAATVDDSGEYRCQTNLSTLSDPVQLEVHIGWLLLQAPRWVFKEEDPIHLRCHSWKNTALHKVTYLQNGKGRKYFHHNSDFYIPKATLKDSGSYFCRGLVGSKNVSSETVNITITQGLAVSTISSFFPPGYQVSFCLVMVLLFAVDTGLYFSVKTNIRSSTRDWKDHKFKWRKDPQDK

| Binder | Kd [1] | Kd [2] |
| --- | --- | --- |
| X3-KL HM268-K8 (antibody) chain 1: QVQLVQSGPEVKKPGASVKVVCKTSGYTFTSYYIQWLKQRPGQGLEWIGWIYFGDASTKYNEKFKGRVTMTADKSTSTAYMELRSLRSDDTAVYYCASYYGSYFDYWGQGTTVTVSSASTKGPSVFPLAPSSKSTSGGTAALGCLVKDYFPEPVTVSWNSGALTSGVHTFPAVLQSSGLYSLSSVVTVPSSSLGTQTYICNVNHKPSNTKVDKKVEPKSCDKTHTCPPCPAPELLGGPDVFLFPPKPKDTLMISRTPEVTCVVVDVSDEDPEVKFNWYVDGVEVHNAKTKPREEQYNSTYRVVSVLTVLHQDWLNGKEYKCAVSNKAYPAPIEKTISKAKGQPREPQVYTLPPSRDELTKNQVSLTCLVKGFYPSDIAVEWESNGQPENNYKTTPPVLDSDGSFFLYSKLTVDKSRWQQGNVFSCSVMHEALHNHYTQKSLSLSPGK chain 2: DIQMTQSPSSLSASVGDRVTITCRASQDISNYLNWYQQKPDGTVKLLIYSTSRLHSGVPSRFSGSGSGTDYTLTISSLQPEDFATYYCQQGSTLPFTFGQGTKLEIKRTVAAPSVFIFPPSDEQLKSGTASVVCLLNNFYPREAKVQWKVDNALQSGNSQESVTEQDSKDSTYSLSSTLTLSKADYEKHKVYACEVTHQGLSSPVTKSFNRGEC | 0.736 µM | 1.25 µM |
| X3-KS-DF HM297-H5 (antibody) chain 1: QVQLVQSGPEVKKPGASVKIPCKASGYTFTDYNVDWVRQVPGQGLEWMGDIDPNNGGTIYNQKFKDRVTMTVDKSTRTAYMELRSLRSDDTAVYYCARWRGAMDYWGQGTLVTVSSASTKGPSVFPLAPSSKSTSGGTAALGCLVKDYFPEPVTVSWNSGALTSGVHTFPAVLQSSGLYSLSSVVTVPSSSLGTQTYICNVNHKPSNTKVDKKVEPKSCDKTHTCPPCPAPELLGGPDVFLFPPKPKDTLMISRTPEVTCVVVDVGDEDPEVKFNWYVDGVEVHNAKTKPREEQYNSTYRVVSVLTVLHQDWLNGKEYKCAVSNKALPAPIEKTISKAKGQPREPQVYTLPPSRDELTKNQVSLTCLVKGFYPSDIAVEWESNGQPENNYKTTPPVLDSDGSFFLYSKLTVDKSRWQQGNVFSCSVMHEALHNHYTQKSLSLSPGK chain 2: DIQMTQSPSSLSASVGDRVTITCRASQDIDNYLKWYQQKPDGTVKLLIYDTSRLHSGVPSRFSGSGSGTDYTLTISSLKQEDFATYYCQQGYTLPWTFGQGTKLEIKRTVAAPSVFIFPPSDEQLKSGTASVVCLLNNFYPREAKVQWKVDNALQSGNSQESVTEQDSKDSTYSLSSTLTLSKADYEKHKVYACEVTHQGLSSPVTKSFNRGEC | 1.22 µM |  |
| X3-KI HM268-K8 (antibody) chain 1: QVQLVQSGPEVKKPGASVKVVCKTSGYTFTSYYIQWLKQRPGQGLEWIGWIYFGDASTKYNEKFKGRVTMTADKSTSTAYMELRSLRSDDTAVYYCASYYGSYFDYWGQGTTVTVSSASTKGPSVFPLAPSSKSTSGGTAALGCLVKDYFPEPVTVSWNSGALTSGVHTFPAVLQSSGLYSLSSVVTVPSSSLGTQTYICNVNHKPSNTKVDKKVEPKSCDKTHTCPPCPAPELLGGPDVFLFPPKPKDTLMISRTPEVTCVVVDVSDEDPEVKFNWYVDGVEVHNAKTKPREEQYNSTYRVVSVLTVLHQDWLNGKEYKCAVSNKALPAPEEKTISKAKGQPREPQVYTLPPSRDELTKNQVSLTCLVKGFYPSDIAVEWESNGQPENNYKTTPPVLDSDGSFFLYSKLTVDKSRWQQGNVFSCSVMHEALHNHYTQKSLSLSPGK chain 2: DIQMTQSPSSLSASVGDRVTITCRASQDISNYLNWYQQKPDGTVKLLIYSTSRLHSGVPSRFSGSGSGTDYTLTISSLQPEDFATYYCQQGSTLPFTFGQGTKLEIKRTVAAPSVFIFPPSDEQLKSGTASVVCLLNNFYPREAKVQWKVDNALQSGNSQESVTEQDSKDSTYSLSSTLTLSKADYEKHKVYACEVTHQGLSSPVTKSFNRGEC | 0.689 µM | 0.162 µM |
| X3-KS-DF HM268-K8 (antibody) chain 1: QVQLVQSGPEVKKPGASVKVVCKTSGYTFTSYYIQWLKQRPGQGLEWIGWIYFGDASTKYNEKFKGRVTMTADKSTSTAYMELRSLRSDDTAVYYCASYYGSYFDYWGQGTTVTVSSASTKGPSVFPLAPSSKSTSGGTAALGCLVKDYFPEPVTVSWNSGALTSGVHTFPAVLQSSGLYSLSSVVTVPSSSLGTQTYICNVNHKPSNTKVDKKVEPKSCDKTHTCPPCPAPELLGGPDVFLFPPKPKDTLMISRTPEVTCVVVDVGDEDPEVKFNWYVDGVEVHNAKTKPREEQYNSTYRVVSVLTVLHQDWLNGKEYKCAVSNKALPAPIEKTISKAKGQPREPQVYTLPPSRDELTKNQVSLTCLVKGFYPSDIAVEWESNGQPENNYKTTPPVLDSDGSFFLYSKLTVDKSRWQQGNVFSCSVMHEALHNHYTQKSLSLSPGK chain 2: DIQMTQSPSSLSASVGDRVTITCRASQDISNYLNWYQQKPDGTVKLLIYSTSRLHSGVPSRFSGSGSGTDYTLTISSLQPEDFATYYCQQGSTLPFTFGQGTKLEIKRTVAAPSVFIFPPSDEQLKSGTASVVCLLNNFYPREAKVQWKVDNALQSGNSQESVTEQDSKDSTYSLSSTLTLSKADYEKHKVYACEVTHQGLSSPVTKSFNRGEC | 2.2 µM |  |
| X3-K HM268-K8 (antibody) chain 1: QVQLVQSGPEVKKPGASVKVVCKTSGYTFTSYYIQWLKQRPGQGLEWIGWIYFGDASTKYNEKFKGRVTMTADKSTSTAYMELRSLRSDDTAVYYCASYYGSYFDYWGQGTTVTVSSASTKGPSVFPLAPSSKSTSGGTAALGCLVKDYFPEPVTVSWNSGALTSGVHTFPAVLQSSGLYSLSSVVTVPSSSLGTQTYICNVNHKPSNTKVDKKVEPKSCDKTHTCPPCPAPELLGGPDVFLFPPKPKDTLMISRTPEVTCVVVDVSDEDPEVKFNWYVDGVEVHNAKTKPREEQYNSTYRVVSVLTVLHQDWLNGKEYKCAVSNKALPAPIEKTISKAKGQPREPQVYTLPPSRDELTKNQVSLTCLVKGFYPSDIAVEWESNGQPENNYKTTPPVLDSDGSFFLYSKLTVDKSRWQQGNVFSCSVMHEALHNHYTQKSLSLSPGK chain 2: DIQMTQSPSSLSASVGDRVTITCRASQDISNYLNWYQQKPDGTVKLLIYSTSRLHSGVPSRFSGSGSGTDYTLTISSLQPEDFATYYCQQGSTLPFTFGQGTKLEIKRTVAAPSVFIFPPSDEQLKSGTASVVCLLNNFYPREAKVQWKVDNALQSGNSQESVTEQDSKDSTYSLSSTLTLSKADYEKHKVYACEVTHQGLSSPVTKSFNRGEC | 1.38 µM | 0.37 µM |
| X3-KS-DF HM242-C3 (antibody) chain 1: QVQLVQSGPEVKKPGASVKVVCKASGYTFTSYYIQWVKQRPGQGLEWIGWIYPGDGTTKYNEKFKGRVTMTIDKSTRTAYMELRSLRSDDTAVYYCASYYGSYFDYWGQGTLVTVSSASTKGPSVFPLAPSSKSTSGGTAALGCLVKDYFPEPVTVSWNSGALTSGVHTFPAVLQSSGLYSLSSVVTVPSSSLGTQTYICNVNHKPSNTKVDKKVEPKSCDKTHTCPPCPAPELLGGPDVFLFPPKPKDTLMISRTPEVTCVVVDVGDEDPEVKFNWYVDGVEVHNAKTKPREEQYNSTYRVVSVLTVLHQDWLNGKEYKCAVSNKALPAPIEKTISKAKGQPREPQVYTLPPSRDELTKNQVSLTCLVKGFYPSDIAVEWESNGQPENNYKTTPPVLDSDGSFFLYSKLTVDKSRWQQGNVFSCSVMHEALHNHYTQKSLSLSPGK chain 2: not shown | 1.17 µM |  |
| X4-KS HM268-K8 (antibody) chain 1: QVQLVQSGPEVKKPGASVKVVCKTSGYTFTSYYIQWLKQRPGQGLEWIGWIYFGDASTKYNEKFKGRVTMTADKSTSTAYMELRSLRSDDTAVYYCASYYGSYFDYWGQGTTVTVSSASTKGPSVFPLAPSSKSTSGGTAALGCLVKDYFPEPVTVSWNSGALTSGVHTFPAVLQSSGLYSLSSVVTVPSSSLGTQTYICNVNHKPSNTKVDKKVEPKSCDKTHTCPPCPAPELLGGPDVFLFPPKPKDTLMISRTPEVTCVVVDVGDEDPEVKFNWYVDGVEVHNAKTKPREEQYNSTYRVVSVLTVLHQDWLNGKEYKCAVSNKAYPAPEEKTISKAKGQPREPQVYTLPPSRDELTKNQVSLTCLVKGFYPSDIAVEWESNGQPENNYKTTPPVLDSDGSFFLYSKLTVDKSRWQQGNVFSCSVMHEALHNHYTQKSLSLSPGK chain 2: DIQMTQSPSSLSASVGDRVTITCRASQDISNYLNWYQQKPDGTVKLLIYSTSRLHSGVPSRFSGSGSGTDYTLTISSLQPEDFATYYCQQGSTLPFTFGQGTKLEIKRTVAAPSVFIFPPSDEQLKSGTASVVCLLNNFYPREAKVQWKVDNALQSGNSQESVTEQDSKDSTYSLSSTLTLSKADYEKHKVYACEVTHQGLSSPVTKSFNRGEC | 2.55 µM | 0.881 µM |
| X2-K-DF HM242-C3 (antibody) chain 1: QVQLVQSGPEVKKPGASVKVVCKASGYTFTSYYIQWVKQRPGQGLEWIGWIYPGDGTTKYNEKFKGRVTMTIDKSTRTAYMELRSLRSDDTAVYYCASYYGSYFDYWGQGTLVTVSSASTKGPSVFPLAPSSKSTSGGTAALGCLVKDYFPEPVTVSWNSGALTSGVHTFPAVLQSSGLYSLSSVVTVPSSSLGTQTYICNVNHKPSNTKVDKKVEPKSCDKTHTCPPCPAPELLDGPSVFLFPPKPKDTLMISRTPEVTCVVVDVSDEDPEVKFNWYVDGVEVHNAKTKPREEQYNSTYRVVSVLTVLHQDWLNGKEYKCAVSNKALPAPIEKTISKAKGQPREPQVYTLPPSRDELTKNQVSLTCLVKGFYPSDIAVEWESNGQPENNYKTTPPVLDSDGSFFLYSKLTVDKSRWQQGNVFSCSVMHEALHNHYTQKSLSLSPGK chain 2: not shown | 1.02 µM |  |
| X3-KS-DF HM242-D3 (antibody) chain 1: QVQLVQSGPEVKKPGASVKVVCKASGYTFTSYYIQWVRQVPGQGLEWMGWIYPGDGTTKYNEKFKGRVTMTIDTSTSTAYMELRSLRSDDTAVYYCASYYGSYFDYWGQGTLVTVSSASTKGPSVFPLAPSSKSTSGGTAALGCLVKDYFPEPVTVSWNSGALTSGVHTFPAVLQSSGLYSLSSVVTVPSSSLGTQTYICNVNHKPSNTKVDKKVEPKSCDKTHTCPPCPAPELLGGPDVFLFPPKPKDTLMISRTPEVTCVVVDVGDEDPEVKFNWYVDGVEVHNAKTKPREEQYNSTYRVVSVLTVLHQDWLNGKEYKCAVSNKALPAPIEKTISKAKGQPREPQVYTLPPSRDELTKNQVSLTCLVKGFYPSDIAVEWESNGQPENNYKTTPPVLDSDGSFFLYSKLTVDKSRWQQGNVFSCSVMHEALHNHYTQKSLSLSPGK chain 2: not shown | 2.54 µM |  |
